Data published in patent US20030144209A1 (MASSACHUSETTS GERNERAL HOSPITAL, published 2003).
Values belong to the molecule of their own block, whether it stands above or below them. Square brackets hold non-standard residues; d marks the D form. Ends that are not written are not given here. * marks the point of attachment. Propionyl = CCC(=O)*

Assays:
[1] = target: T1, human PTH-1 receptor (human, UniProt Q03431 27-593); test: cell-based or functional assay
T1 sequence (looked up): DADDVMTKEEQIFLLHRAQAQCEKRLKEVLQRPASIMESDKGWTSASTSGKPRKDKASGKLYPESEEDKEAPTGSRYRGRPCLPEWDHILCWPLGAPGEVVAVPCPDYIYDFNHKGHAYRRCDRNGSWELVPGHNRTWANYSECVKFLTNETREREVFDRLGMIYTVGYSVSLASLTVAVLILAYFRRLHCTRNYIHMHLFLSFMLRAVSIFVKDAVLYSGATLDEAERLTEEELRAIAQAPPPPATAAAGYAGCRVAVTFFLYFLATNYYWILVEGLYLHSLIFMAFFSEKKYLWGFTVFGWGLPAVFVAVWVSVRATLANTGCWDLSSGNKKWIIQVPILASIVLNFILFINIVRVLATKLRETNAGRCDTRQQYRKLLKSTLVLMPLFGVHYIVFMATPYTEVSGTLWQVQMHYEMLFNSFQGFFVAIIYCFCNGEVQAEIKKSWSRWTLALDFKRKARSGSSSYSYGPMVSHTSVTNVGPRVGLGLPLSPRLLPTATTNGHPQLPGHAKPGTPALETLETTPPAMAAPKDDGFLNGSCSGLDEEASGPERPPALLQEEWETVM

[2] = target: T2, human PTH-2 receptor (human, UniProt P49190 25-550); test: cell-based or functional assay
T2 sequence (P49190 25-550): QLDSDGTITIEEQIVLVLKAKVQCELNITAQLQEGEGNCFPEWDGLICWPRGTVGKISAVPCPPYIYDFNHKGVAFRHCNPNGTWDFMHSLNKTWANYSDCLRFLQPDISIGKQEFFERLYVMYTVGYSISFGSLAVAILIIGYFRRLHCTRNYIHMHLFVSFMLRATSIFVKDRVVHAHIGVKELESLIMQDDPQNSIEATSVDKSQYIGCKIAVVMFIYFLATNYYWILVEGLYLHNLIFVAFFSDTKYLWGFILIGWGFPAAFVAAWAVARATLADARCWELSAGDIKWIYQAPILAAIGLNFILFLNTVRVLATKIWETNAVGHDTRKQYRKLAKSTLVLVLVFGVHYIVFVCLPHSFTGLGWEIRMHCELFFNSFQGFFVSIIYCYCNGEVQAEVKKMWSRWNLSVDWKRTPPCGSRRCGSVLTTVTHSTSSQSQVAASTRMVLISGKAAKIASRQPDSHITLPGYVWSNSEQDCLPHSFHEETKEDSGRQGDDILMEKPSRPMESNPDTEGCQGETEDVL

[3] = target: T2, human PTH-2 receptor; test: competitive displacement of 125I-[Nle8,21]rPTH(1-34) from HPR2-7 cells expressing the human PTH-2 receptor
From the text: Cell layers were washed three times before solubilization for determination of cell-associated radioactivity.

B1: desamino-[Ala^1]hPTH(1-34)NH2 (peptide)
peptide: [Propionyl]VSEIQLMHNLGKHLNSMERVEWLRKKLQDVHNF-NH2
SMILES: CCC(=O)N[C@H](C(=O)N[C@@H](CO)C(=O)N[C@@H](CCC(=O)O)C(=O)N[C@H](C(=O)N[C@@H](CCC(N)=O)C(=O)N[C@@H](CC(C)C)C(=O)N[C@@H](CCSC)C(=O)N[C@@H](Cc1c[nH]cn1)C(=O)N[C@@H](CC(N)=O)C(=O)N[C@@H](CC(C)C)C(=O)NCC(=O)N[C@@H](CCCCN)C(=O)N[C@@H](Cc1c[nH]cn1)C(=O)N[C@@H](CC(C)C)C(=O)N[C@@H](CC(N)=O)C(=O)N[C@@H](CO)C(=O)N[C@@H](CCSC)C(=O)N[C@@H](CCC(=O)O)C(=O)N[C@@H](CCCNC(=N)N)C(=O)N[C@H](C(=O)N[C@@H](CCC(=O)O)C(=O)N[C@@H](Cc1c[nH]c2ccccc12)C(=O)N[C@@H](CC(C)C)C(=O)N[C@@H](CCCNC(=N)N)C(=O)N[C@@H](CCCCN)C(=O)N[C@@H](CCCCN)C(=O)N[C@@H](CC(C)C)C(=O)N[C@@H](CCC(N)=O)C(=O)N[C@@H](CC(=O)O)C(=O)N[C@H](C(=O)N[C@@H](Cc1c[nH]cn1)C(=O)N[C@@H](CC(N)=O)C(=O)N[C@@H](Cc1ccccc1)C(N)=O)C(C)C)C(C)C)[C@@H](C)CC)C(C)C
notes: Analog of human PTH(1-34) in which Ser1 is replaced by desamino alanine; also called [desamino Ala^1]PTH(1-34); desamino-[Ala^1] peptide
fold decrease in AC activity relative to the amino-bearing peptide [1]: 10 fold | EC50 of AC activation, fold lower than hPTH(1-34) [2]: 3 fold | EC50 of adenylyl cyclase (AC) activation [2]: 10 nM | PLC stimulation relative to 1000 nM hPTH(1-34) [2]: 50 % greater | maximal AC response relative to hPTH(1-34) [2]: 2 fold | fold higher apparent binding affinity relative to hPTH(1-34) [3]: 10 fold

B2: desamino-[Gly^1]hPTH(1-34)NH2 (peptide)
peptide: [Ac]VSEIQLMHNLGKHLNSMERVEWLRKKLQDVHNF-NH2
notes: Analog of human PTH(1-34) in which Ser1 is replaced by desamino glycine; also called [desaminoGly^1]; PTH(1-34); desamino-[Gly^1] peptide
fold decrease in AC activity relative to the amino-bearing peptide [1]: 10 fold | EC50 of AC activation, fold lower than hPTH(1-34) [2]: 3 fold | EC50 of adenylyl cyclase (AC) activation [2]: 10 nM | PLC stimulation relative to 1000 nM hPTH(1-34) [2]: 50 % greater | maximal AC response relative to hPTH(1-34) [2]: 2 fold | fold higher apparent binding affinity relative to hPTH(1-34) [3]: 10 fold

Second part, the molecule after the results:

phospholipase C (PLC) activity in HKRK-B7 cells at 1000 nM (% of the hPTH(1-34) maximum) [1]: 50
Molecule: [Gly^1]hPTH(1-34)NH2 (from UniProt P01270 32-65) (peptide)

AC activation relative to hPTH(1-34) [1]: ≤ 10 fold | AC activation relative to hPTH(1-34) [2]: ≤ 10 fold
Molecule: VSEIQLMHNLGKHLNSMERVEWLRKKLQDVHNF-NH2 (peptide, UniProt P01270 33-65, looked up) [hPTH(2-34)]
